Legend:
[1] = substrate: Nc1ncnc2c1ncn2[C@@H]1O[C@H](COP(=O)(O)OP(=O)(O)OP(=O)(O)O)[C@@H](O)[C@H]1O; assay: HPLC-RI, glucose consumption; type: biochemical, Escherichia coli; conditions: glucose 5 mM, 20 mM MgCl2, 25 mM HEPES pH 7.0, 37 °C
HPLC-RI of pyruvate [2] = substrate: Nc1nc2c(ncn2[C@@H]2O[C@H](COP(=O)(O)OP(=O)(O)O)[C@@H](O)[C@H]2O)c(=O)[nH]1; assay: HPLC-RI of pyruvate; type: biochemical, Ruminiclostridium cellulolyticum; conditions: PEP 10 mM, no FBP, 20 mM MgCl2, 30 mM KCl, 25 mM HEPES pH 7.0, 37 °C
Excerpt: (§1) HPLC-RI of pyruvate on Pyruvate kinase (PK)

HPLC-RI of pyruvate [3] = substrate: Nc1ncnc2c1ncn2[C@@H]1O[C@H](COP(=O)(O)OP(=O)(O)O)[C@@H](O)[C@H]1O; assay: HPLC-RI of pyruvate; type: biochemical, Ruminiclostridium cellulolyticum; conditions: PEP 10 mM, no FBP, 20 mM MgCl2, 30 mM KCl, 25 mM HEPES pH 7.0, 37 °C, Hill fit, nH 1.41
Excerpt: as §1

HPLC-RI of pyruvate [4] = substrate: C=C(OP(=O)(O)O)C(=O)O; assay: HPLC-RI of pyruvate; type: biochemical, Ruminiclostridium cellulolyticum; conditions: ADP 5 mM, no FBP, 20 mM MgCl2, 30 mM KCl, 25 mM HEPES pH 7.0, 37 °C, Hill fit, nH 1.32
Excerpt: as §1

HPLC-RI of products [5] = substrate: Nc1nc2c(ncn2[C@@H]2O[C@H](COP(=O)(O)OP(=O)(O)O)[C@@H](O)[C@H]2O)c(=O)[nH]1; assay: HPLC-RI of products; type: biochemical, Ruminiclostridium cellulolyticum; conditions: acetyl-P 5 mM, 20 mM MgCl2, 25 mM HEPES pH 7.0, 37 °C
Excerpt: (§2) HPLC-RI of products on Acetate kinase (AK)

HPLC-RI of products [6] = substrate: CC(=O)OP(=O)(O)O; assay: HPLC-RI of products; type: biochemical, Ruminiclostridium cellulolyticum; conditions: ADP 10 mM, 20 mM MgCl2, 25 mM HEPES pH 7.0, 37 °C
Excerpt: as §2

HPLC-RI of products [7] = substrate: Nc1ncnc2c1ncn2[C@@H]1O[C@H](COP(=O)(O)OP(=O)(O)O)[C@@H](O)[C@H]1O; assay: HPLC-RI of products; type: biochemical, Ruminiclostridium cellulolyticum; conditions: acetyl-P 5 mM, 20 mM MgCl2, 25 mM HEPES pH 7.0, 37 °C
Excerpt: as §2

HPLC-RI of products [8] = substrate: Nc1ncnc2c1ncn2[C@@H]1O[C@H](COP(=O)(O)OP(=O)(O)OP(=O)(O)O)[C@@H](O)[C@H]1O; assay: HPLC-RI of products; type: biochemical, Ruminiclostridium cellulolyticum; conditions: reverse reaction, acetate 10 mM, 20 mM MgCl2, 25 mM HEPES pH 7.0, 37 °C
Excerpt: as §2

purified protein [9] = substrate: CC(=O)O; assay: purified protein; conditions: reverse reaction, ATP 10 mM, 20 mM MgCl2, 25 mM HEPES pH 7.0, 37 °C
[10] = substrate: Nc1nc2c(ncn2[C@@H]2O[C@H](COP(=O)(O)OP(=O)(O)OP(=O)(O)O)[C@@H](O)[C@H]2O)c(=O)[nH]1; assay: GAPDH-coupled NADH oxidation; type: biochemical, Ruminiclostridium cellulolyticum; conditions: reverse, 3-PG 25 mM, 0.3 mM NADH, 10 mM MgCl2, 50 mM phosphate pH 7.0, 15 mM cysteine, 37 °C
[11] = substrate: Nc1ncnc2c1ncn2[C@@H]1O[C@H](COP(=O)(O)OP(=O)(O)OP(=O)(O)O)[C@@H](O)[C@H]1O; assay: GAPDH-coupled NADH oxidation; type: biochemical, Ruminiclostridium cellulolyticum; conditions: reverse, 3-PG 4 mM, 0.3 mM NADH, 10 mM MgCl2, 50 mM phosphate pH 7.0, 15 mM cysteine, 37 °C
purified protein [12] = substrate: Nc1nc2c(ncn2[C@@H]2O[C@H](COP(=O)(O)OP(=O)(O)O)[C@@H](O)[C@H]2O)c(=O)[nH]1; assay: purified protein; type: biochemical, Ruminiclostridium cellulolyticum; conditions: forward, 3 mM glyceraldehyde-3-P, 1.1 mM NAD+, 10 mM MgCl2, 50 mM phosphate pH 7.0, 15 mM cysteine, 37 °C, 1,3-BPG concentration unknown, Hill fit, nH 1.63
purified protein [13] = substrate: Nc1ncnc2c1ncn2[C@@H]1O[C@H](COP(=O)(O)OP(=O)(O)O)[C@@H](O)[C@H]1O; assay: purified protein; type: biochemical, Ruminiclostridium cellulolyticum; conditions: forward, 3 mM glyceraldehyde-3-P, 1.1 mM NAD+, 10 mM MgCl2, 50 mM phosphate pH 7.0, 15 mM cysteine, 37 °C, 1,3-BPG concentration unknown, Hill fit, nH 4.03
HPLC-RI of products [14] = substrate: O=C(CO)[C@@H](O)[C@H](O)CO; assay: HPLC-RI of products; type: biochemical, Ruminiclostridium cellulolyticum; conditions: GTP 10 mM, 20 mM MgCl2, 25 mM HEPES pH 7.0, 37 °C
Excerpt: (§3) HPLC-RI of products on Xylulokinase (XK)

HPLC-RI of products [15] = substrate: Nc1nc2c(ncn2[C@@H]2O[C@H](COP(=O)(O)OP(=O)(O)OP(=O)(O)O)[C@@H](O)[C@H]2O)c(=O)[nH]1; assay: HPLC-RI of products; type: biochemical, Ruminiclostridium cellulolyticum; conditions: xylulose 2.5 mM, 20 mM MgCl2, 25 mM HEPES pH 7.0, 37 °C
Excerpt: as §3

HPLC-RI of products [16] = substrate: Nc1ncnc2c1ncn2[C@@H]1O[C@H](COP(=O)(O)OP(=O)(O)OP(=O)(O)O)[C@@H](O)[C@H]1O; assay: HPLC-RI of products; type: biochemical, Ruminiclostridium cellulolyticum; conditions: xylulose 2.5 mM, 20 mM MgCl2, 25 mM HEPES pH 7.0, 37 °C
Excerpt: as §3

B1: E. coli glucokinase (GLK) (Escherichia coli K-12) (protein)
chain: MTKYALVGDVGGTNARLALCDIASGEISQAKTYSGLDYPSLEAVIRVYLEEHKVEVKDGCIAIACPITGDWVAMTNHTWAFSIAEMKKNLGFSHLEIINDFTAVSMAIPMLKKEHLIQFGGAEPVEGKPIAVYGAGTGLGVAHLVHVDKRWVSLPGEGGHVDFAPNSEEEAIILEILRAEIGHVSAERVLSGPGLVNLYRAIVKADNRLPENLKPKDITERALADSCTDCRRALSLFCVIMGRFGGNLALNLGTFGGVFIAGGIVPRFLEFFKASGFRAAFEDKGRFKEYVHDIPVYLIVHDNPGLLGSGAHLRQTLGHIL
notes: full-length, C-terminal His tag (pET22b+), E. coli BL21(DE3), Ni-NTA and anion exchange
Km [1]: 2.47 ± 0.39 mM

B2: Pyruvate kinase (PK) (Ruminiclostridium cellulolyticum H10) (protein)
chain: MRRTKIICTLGPASDNEDILRKMMLGGMSLARMNFSHGTHEEHKKRADLVKKIREELNLPIPLLLDTKGPEIRTGKFKNDQAILKENNEFILVNEDILGDETKCTITYKELYKDVSRGSKILINDGLVELEVTEIKNKDIYCRVLNGGAVGNHKGINVPGAEIKLPSLTEQDIDDIKFGIKNDFDIIAASFVRKASDVVEIRKVLEKNGGKDILIIAKIENREGIKNFNDILKVSDGIMVARGDLGVEIPVEEVPIVQKNIIEKCYQNGKPVITATQMLDSMIRNPRPTRAEASDVANAIFDGTSCVMLSGETAAGKYPIETIEVMAKIAEKAEKSMDYWNRFATARTELDTSVTNAISHATCTTALDLKAAAIITVTQSGHTARMIARFRPACPIIATTANPKVQRQLNLSWGVMPYLVGIAKTTDDMFDNGVEKALESGLVKNGDLAVITAGMPAGISGTTNTLKVHIVGRVLVQGVGIGTSSVTGELCVAQNTKEAMDKFTDGNIIVAPFTDNSMLPVIKRASAIVVEEHGQSCHAATVGLALDIPVILGAENATKILKAGSVVTVDSERGLVIRCN
notes: full-length, C-terminal His tag (pET28a), E. coli BL21(DE3), Ni-NTA and anion exchange
Km (HPLC-RI of pyruvate [2]): 0.90 ± 0.14 mM
kcat (HPLC-RI of pyruvate [2]): 977 ± 48 iu/µmol
Km (HPLC-RI of pyruvate [3]): 1.87 ± 0.14 mM
kcat (HPLC-RI of pyruvate [3]): 9508 ± 328 iu/µmol
Km (HPLC-RI of pyruvate [4]): 1.56 ± 0.02 mM
kcat (HPLC-RI of pyruvate [4]): 9212 ± 50 iu/µmol

B3: Acetate kinase (AK) (Ruminiclostridium cellulolyticum H10) (protein)
chain: MKVLVINAGSSSLKYQLIDMKNETVLAKGLCDRIGIDNSFIKQSRGSEEAVILNKELKNHKDAIEAVISALTDDNMGVIKNMSEISAVGHRIVHGGEKFNSSVVIDENVMNAVRECIDVAPLHNPPNIIGIEACQQIMPNIPMVAVFDTTFHSSMPDYAYLYALPYELYEKYGIRKYGFHGTSHKYVAERASAMLDKSLNELKIITCHLGNGSSICAVNKGKSIDTSMGFTPLQGLAMGTRSGTIDPEVVTFLMEKENLDVKGVSKLLNKKSGVLGISGVSSDFRDLHAAADAGNSRAELAIEIFCYGVKKFIGEYIAVMNGVDAIVFTAGVGENNSVVRNMIISDMDFLGIKIDEEKNKLRGQEVDISTADAAVRTLVIPTNEELAIARETVRLVK
notes: as for B2
Km (HPLC-RI of products [5]): 1.47 ± 0.13 mM
kcat (HPLC-RI of products [5]): 35,365 ± 1,150 iu/µmol
Km (HPLC-RI of products [6]): 1.49 ± 0.2 mM
kcat (HPLC-RI of products [6]): 25,112 ± 1755 iu/µmol
Km (HPLC-RI of products [7]): 1.13 ± 0.21 mM
kcat (HPLC-RI of products [7]): 25,437 ± 1668 iu/µmol
Km (HPLC-RI of products [8]): 1.47 ± 0.17 mM
kcat (HPLC-RI of products [8]): 16.68 ± 0.74 iu/µmol
Km (purified protein [9]): 2.37 ± 0.38 mM
kcat (purified protein [9]): kcat = 12.85 ± 0.85 iu/umol

B4: Phosphoglycerate kinase (PGK) (Ruminiclostridium cellulolyticum H10) (protein)
chain: MSMMNKKTIEDIDVAGKRVIVRVDFNVPLDENRKITDDKRIVGALPTIKYLVDKGAKTILVSHLGRPKEGFEDKFSMKPTAVRLGELLGKEIIMAKDVVGEDAKSKAAALKDGEVLMLENVRFHKEETKNDANFAKELASMAEIFVNDAFGTAHRAHASTAGLADYLPAVCGFLIKKEIEFMGKALANPARPFVAILGGAKVSDKIAVIENLIDKVDTLIIGGGMAYTFLKAKGYHIGNSICEEDKIDLAKTLMEKAEAKGVEIMLPIGSMVAQEFKNDTEIKYVPSDAMPDGWMGMDIGSLTIENFAKEIKKAKTVIWNGPMGVFEFPNFATGTKEIAKAVAESGALSIVGGGDSAAAVEQLGFADKITHISTGGGASLEFLEGKELPGIAVLMDKNPRKVIAAGNWKMNKTASEAVEFVNALKPAVADAKNEVVVGVPFVCLPGVVAAAKGSNIKVAAQNMHWEEKGAFTGEVSGPMLADLGVDYVIIGHSERREYFGETNEMINKKAHAIFKYGMTPIICCGETLTQREQGVTADHIRYQIKVALLDLTAEQVSKLVIAYEPIWAIGTGKTATNEQANEVCTIIRELVAELYGSEVAEHVRIQYGGSVNAKNATELFAMSDIDGGLVGGASLKVEDFSIIAKA
notes: full-length, C-terminal His tag (pET28a), E. coli BL21(DE3), Ni-NTA, anion exchange, gel filtration
Km [10]: 4.66 ± 1.24 mM
kcat [10]: 2831 ± 348 iu/µmol
Km [11]: 0.48 ± 0.07 mM
kcat [11]: kcat = 4256 ± 148 iu/umol
Km (purified protein [12]): 0.135 ± 0.008 mM
kcat (purified protein [12]): 771 ± 20 iu/µmol
Km (purified protein [13]): 0.08 ± 0.002 mM
kcat (purified protein [13]): 733 ± 12 iu/µmol

B5: Xylulokinase (XK) (Ruminiclostridium cellulolyticum H10) (protein)
chain: MSFLIGIDLGTSGVKTVLFDEAGKPVASSTVEYPLYQPNLGWAEQDPEEWWKGTCESINNVMLKSGVDKREVKGIGLSGQMHGAVLLDKDDKVLRNAIIWCDQRSAAECDEITDLIGRERLIEITANPALTGFTASKIMWVKNNEPQIFEKIAKILLPKDYIRFRLTGEYATEVSDASGMQLMNIAKREWSIEVLDKLGLSTSMLGKMYESQEVTGKVTSSAADQTGLNAGTIVVGGGGDQAAGAVGNGIVKSGIVSSTIGTSGVVFAYTDKLTIDPLGRVHTFCHAVPNTYHVMGVTQGAGLSLKWFRDNFCMEEMMTSELSDIDVYKLLDAEAETIKPCSDGLVYLPYLMGERTPHLDPNAKGVFFGLTAKHTKPHFIRSIMEGVTFSLRDCLEIIKGMGVDVSEVRASGGGGKSGIWRQMQADVFGTNINRIRSDEGPALGVAILAGVGAGIYDSVPQACEEVIKVKDTLAPVEDRIKKYDDFYKLYTKLYKSLKDDFNQLSTILK
notes: as for B2
Km (HPLC-RI of products [14]): 0.30 ± 0.07 mM
kcat (HPLC-RI of products [14]): 8788 ± 375 iu/µmol
Km (HPLC-RI of products [15]): 0.12 ± 0.02 mM
kcat (HPLC-RI of products [15]): 6540 ± 177 iu/µmol
Km (HPLC-RI of products [16]): 1.18 ± 0.18 mM
kcat (HPLC-RI of products [16]): 6653 ± 281 iu/µmol
